From patent US20240043507A1 (RQ BIOTECHNOLOGY, published 2024)
Substitutions are numbered along the chain they refer to.

B1: antibody 58 (antibody, V domains shown)
VH: QVQLVESGGGLVQPGRSLRLSCAASGFTFDDYAMHWVRQPPGKGLEWVSGVSWNSGTIGYADSVKGRFIISRDNAKNSLYLQMNSLKAEDTALYYCAREVGGTFGVLISREGGLDYWGQGTLVTVSS
VL: SYELTQPPSVSVAPGQTARITCGGNTIGSKSVHWYQQRPGQAPVLVVYDDSDRPSGIPERFSGSNSGNTATLTISRVEAGDEADYYCQVWDSSSDRVVFGGGTKLTVL
notes: also called mAb 58
B2: antibody 40 (antibody, V domains shown)
VH: QVQLVESGGGLVQPGGSLRLSCAVSGFTVSRNYMSWVRQAPGKGLEWVSLIYSGGSTFYADSVKGRFTISRDNSKNTLYLQMNSLRAEDTAVYYCARDLFHRSGYHDYWGQGTLVTVSS
VL: not shown
notes: also called mAb 40
B3: antibody 269 (antibody, V domains shown)
VH: QVQLVESGGGLIQPGGSLRLSCAASGLTVNRNYMSWIRQAPGKGLEWVSVIYSGGSTFYADSVKGRFTISRDNSKNTLSLQMNSLRAEDTAIYYCARDFYEGSFDIWGQGTMVTVSS
VL: AIQLTQSPSFLSASIGDRVTITCRASQGISSYLAWYQQKPGKAPKLLIYAASTLQSGVPSRFSGSGSGTEFTLTISSLQPEDFASYYCQQLNSYPAPVFGPGTKVDIK
B4: antibody 88 (antibody, V domains shown)
VH: QLQLQESGPGLVKPSQTLSLTCTVSGGSISSGSYNWTWIRQPAGKGLEWIGRIYNSGSTNYNPSLKSRVTISVDTSKNQLSLKVRSVTAADTAVYYCARHCSGGTCYPKYYYGMDVWGQGTTVTVSS
VL: QSALTQPPSVSEAPRQRVTISCSGSSSNIGNNAVNWYQQFPGKAPKLLIYYDDLLPSGVSDRFSGSKSGTSASLAISGVQSEDEADYYCAAWDDSLNVVVFGGGTKLTVL
B5: antibody 281 (antibody, V domains shown)
VH: QVQLVESGGGLVQPGGSLRLSCAASGFPFSIYWMSWVRQAPGKGLEWVANIKQDGSEKYYVDSVKGRFTISRDNAKNSLYLHMNSLRGEDTAVYYCASRYYDFRPEAWFDYWGQGTLVTVSS
VL: not shown
B6: antibody 222 (antibody, V domains shown)
VH: EVQLVESGGGLIQPGGSLRLSCAASGLTVSSNYMSWVRQAPGKGLEWVSVIYSGGSTFYADSVKGRFTISRDNSKNTLYLQMNSLGAEDTAVYYCARGEGSPGNWFDPWGQGTLVTVSS
VL: DVVMTQSPGTLSLSPGERATLSCRASQSVPSSYLAWYQQKPGQAPRLLIYGASTRATGIPDRFSGSGSGTDFTLTISRLEPEDFAVYYCQHYDTSPRFGGGTKVDIK
B7: antibody 58 (antibody, V domains shown)
VH: B1 VH
VL: B1 VL
B8: antibody 175 (antibody, V domains shown)
VH: EVQLVESGGGLIQPGGSLRLSCAASGLTVSRNYMSWVRQAPGKGLEWVSLIYSGGSTYYADSVKGRFTISRDNSKNTLYLQMNSLRAEDTAVYYCARDLRGEVWGQGTMVTVSS
VL: not shown
B9: antibody 40 (antibody, V domains shown)
VH: B2 VH
VL: not shown
B10: antibody 158 (antibody, V domains shown)
VH: EVQLLESGGDLIQPGGSLRLSCAASGVTVSSNYMSWVRQAPGKGLEWVSIIYPGGSTFYADSVKGRFTISRDNSKNTLYLQMHSLRAEDTAVYYCARDLGSGDMDVWGKGTTVTVSS
VL: DIVMTQSPSFLSASVGDRVTITCRASQGISSYLAWYQQKPGKAPKLLIQAASTLQSGVPSRFSGSGSGTEFTLTISSLQPEDFATYYCQQLNSYRYTFGQGTKVEIK
B11: antibody 318 (antibody, V domains shown)
VH: QVQLVQSGPEVKKPGTSVKVSCKASGFTLTSSAMQWVRQARGQRLEWIGWIVVGSGNTNYAQKFQERVTITRDMSTSTAYMELSSLRSEDTAVYYCAAGRGYNSDFDYWGQGTLVTVSS
VL: AIRMTQSPGTLSLSPGERATLSCRASQSVSSSYLAWYQQRPGQAPRLLIYGTSSRATGIPDRFSGSGSGTDFTLTISRLEPEDFAVYYCQQYGYSVYTFGQGTKVDIK
B12: antibody 316 (antibody, V domains shown)
VH: not shown
VL: QAVLTQPPSASGSPGQSVTISCTGTSSDVGGYNYVSWYQQHPGKAPKLMIYEVSKRPSGVPDRFSGSKSGNTASLTVSGLQAEDEADYYCSSYAGSNHWVFGGGTKLTVL
B13: antibody 398 (antibody, V domains shown)
VH: QVQLVESGGGLVQPGGSLRLSCAASGFTVSSNYMTWVRQAPGKGLEWVSVIYSGGSTYYADSVKGRFTISRDNSKNTLYLQMNSLRADDTAVYYCARDSTADYDFWSGYYVGAFHIWGQGTMVTVSS
VL: B12 VL with A2T, P8A, A10V, V18I, S54T, H98N
B14: antibody 253H165L (antibody, V domains shown)
VH: not shown
VL: DIVMTQSPGTLSLSPGERATLSCRASQSVRSSYLAWYQQKPGQAPRLLIYGASRRGTGIPDRFSGSGSGTDFTLTISRLEPEDFAVYYCQQYGSSPWTFGQGTKVEIK
B15: Fab 269 (Fab, V domains shown)
VH: B3 VH
VL: B3 VL
notes: also called 269 Fab; COVOX-269 Fab
B16: Fab 281 (Fab, V domains shown)
VH: B5 VH
VL: not shown
B17: Fab 222 (Fab, V domains shown)
VH: B6 VH
VL: B6 VL
notes: Fab
B18: Fab 58 (Fab, V domains shown)
VH: B1 VH
VL: B1 VL
B19: Fab 175 (Fab, V domains shown)
VH: B8 VH
VL: not shown
B20: Fab 278 (Fab, V domains shown)
VH: QVQLVQSGAEVKKPGASVKVSCKASGYIFIRYGISWVRQAPGQGLEWMGWISANNGYTNYAQKLQGRVTMTTDTSTSTAYMELRSLRSDDTAVYYCARDGGILTGYLDYFDHWGQGTLVTVSS
VL: DIQMTQSPSSLSASVGDRLTITCRASQSIASYLNWYQQKPGKAPKLLIYAASSLQSGVPSRFSGSGSGTDFTLTISSLQPEDFATYHCQQSYSTLGITFGPGTKVDIK
B21: Fab 158 (Fab, V domains shown)
VH: B10 VH
VL: B10 VL
B22: Fab 318 (Fab, V domains shown)
VH: B11 VH
VL: B11 VL
B23: Fab 316 (Fab, V domains shown)
VH: not shown
VL: B12 VL
notes: also called 316 Fab (glycosylated)
B24: Fab 165 (Fab, V domains shown)
VH: QVQLVQSGPEVKKPGTSVKVSCKASGFTFTSSAVQWVRQARGQRLEWIGWIVVGSGNTNYAQKFQESVTITRDMSTSTAYMELSSLRSEDTAVYYCAAPHCIGGSCHDAFDIWGQGTMVTVSS
VL: B14 VL
B25: Fab 45 (Fab, V domains shown)
VH: QVQLVESGGGVVQPGRSLRLSCAASGFTFSTYAMHWVRQAPGKGLEWVAVLSYDGSNKYYADSVKGRFTISRDNSKNTLYLQMNSLRAEDTAVYYCAKGGSYAYYYYMDVWGKGTTVTVSS
VL: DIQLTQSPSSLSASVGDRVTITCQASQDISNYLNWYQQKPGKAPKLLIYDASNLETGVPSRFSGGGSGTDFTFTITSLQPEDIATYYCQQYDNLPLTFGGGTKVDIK

Biological target: T1, SARS-CoV-2 spike receptor binding domain, native (SARS-CoV-2, UniProt P0DTC2 330-532)
T1 construct: range 330-532
Experiment: BLI, RBD on AR2G biosensor, mAb as analyte

Row | Binder | Kd [nM]
1 | B1 | 1.46
2 | B2 | 1.33

Biological target: SARS-CoV-2 spike receptor binding domain (native RBD) (SARS-CoV-2, UniProt P0DTC2 330-532)
Experiment: not given

Row | Binder | Kd [nM]
3 | B3 | 1.59
4 | B4 | 0.64
5 | B5 | 3.2
6 | B6 | 0.29
7 | B7 | 0.3
8 | B8 | 0.97
9 | B9 | 0.55
10 | B10 | 0.53
11 | B11 | 2.23
12 | B12 | 1.5
13 | B13 | 1.02
14 | B14 | 0.73

Biological target: T2, SARS-CoV-2 receptor binding domain (RBD), native (SARS-CoV-2, UniProt P0DTC2 330-532)
T2 construct: range 330-532
Experiment: BLI, Fab and RBD

Row | Binder | Kd [nM] | koff [s⁻¹] | kon [M⁻¹ s⁻¹]
15 | B15 | 2.2 |  | 
16 | B16 | 1 |  | 
17 | B17 | 3 |  | 
18 | B18 | 3.4 |  | 
19 | B19 | 2.4 |  | 
20 | B20 | 3 |  | 
21 | B21 | 0.7 |  | 
22 | B22 | 7.6 |  | 
23 | B23 | 2 |  | 
24 | B24 | 4.8 |  | 
25 | B25 | 5.9 | 0.00046 | 78000
